Patent publication US20060024807

What was measured:
[1] = molecular target: T1, Known PK substrate sequence KKKKEEIYFFF (csk tyrosine kinase substrate)
T1 chain: KKKKEEIYFFF

[2] = molecular target: T2, Known PK substrate sequence YIYGSFK (c-src tyrosine kinase substrate)
T2 chain: YIYGSFK

[3] = molecular target: T3, Known PK substrate sequence LRRASLG (cAMP-dependent protein kinase substrate)
T3 chain: LRRASLG

[4] = molecular target: T4, Known PK substrate sequence RRKDLHDDEEDEAMSITA (casein kinase I substrate)
T4 chain: RRKDLHDDEEDEAMSITA

[5] = molecular target: T5, Known PK substrate sequence QKRPSQRSK (protein kinase C substrate)
T5 chain: QKRPSQRSK

[6] = molecular target: T6, Known PK substrate sequence KKRFSFKKSFKLSGFSFK (protein kinase C substrate)
T6 chain: KKRFSFKKSFKLSGFSFK

[7] = molecular target: T7, Known PK substrate sequence SGQLIDSMANSFVGTRS (raf-1 kinase substrate)
T7 chain: SGQLIDSMANSFVGTRS

[8] = molecular target: T8, Known PK substrate sequence EAIYAAPFAKKK (abl tyrosine kinase substrate)
T8 chain: EAIYAAPFAKKK

[9] = molecular target: T9, Known PK substrate sequence PLARTLSVAGLPGK (Ca-/calmodulin-dependent PK substrate)
T9 chain: PLARTLSVAGLPGK

[10] = molecular target: T10, Known PK substrate sequence EAAEAEPAEPSSPAAEAEGA (p42/p44 MAP kinase substrate)
T10 chain: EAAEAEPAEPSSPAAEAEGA

[11] = molecular target: T11, Known PK substrate sequence LMECRNSPVAKT (p42/p44 MAP kinase substrate)
T11 chain: LMECRNSPVAKT

[12] = molecular target: T12, Known PK substrate sequence PKTPKKAKKL (p34 cdc-kinase substrate)
T12 chain: PKTPKKAKKL

[13] = molecular target: T13, Known PK substrate sequence KKRPQRATSNVFS (myosin light chain kinase substrate)
T13 chain: KKRPQRATSNVFS

[14] = molecular target: T14, Known PK substrate sequence KKKLPATGDYMNMSPVGD (insulin receptor tyrosine kinase substrate)
T14 chain: KKKLPATGDYMNMSPVGD

[15] = molecular target: T15, Known PK substrate sequence RKISASEFDRPLR (cGMP-dependent protein kinase substrate)
T15 chain: RKISASEFDRPLR

[16] = molecular target: T16, Known PK substrate sequence LSSLRASTSKSGGQK (S6 kinase substrate)
T16 chain: LSSLRASTSKSGGQK

[17] = molecular target: T17, Known PK substrate sequence APRTPGGRR (p42/p44 MAP kinase substrate)
T17 chain: APRTPGGRR

[18] = molecular target: T18, Known PK substrate sequence KKALRRQETVDAL (Ca-/calmodulin-dependent PK substrate)
T18 chain: KKALRRQETVDAL

[19] = molecular target: T19, Known PK substrate sequence Ac-SPGRRRRK (cdc2-kinase substrate)
T19 chain: SPGRRRRK

[20] = molecular target: T20, Known PK substrate sequence RRRDDDSDDD (casein kinase II substrate)
T20 chain: RRRDDDSDDD

B1: MLSK-1 (Murine Lymph node Stromal cell Kinase 1) (protein)
chain: MESVALLQRPSQAPSASALASESARPLADGLIKSPKPLMKKQAVKRHHHKHNLRHRYEFLETLGKGTYGKVKKARESSGRLVAIKSIRKDKIKDEQDLLHIRREIEIMSSLNHPHIIAIHEVFENSSKIVIVMEYASRGDLYDYISERPRLSERDARHFFRQIVSALHYCHQNGIVHRDLKLENILLDANGNIKIADFGLSNLYHKGKFLQTFCGSPLYASPEIVNGKPYVGPEVDSWSLGVLLYILVHGTMPFDGQDHKTLVKQISNGAYREPPKPSDACGLIRWLLMVNPTRRATLEDVASHWWVNWGYTTGVGEQEALREGGHPSGDFGRASMADWLRRSSRPLLENGAKVCSFFKQHVPGGGSTVPGLERQHSLKKSRKENDMAQNLQGDPAEDTSSRPGKSSLKLPKGILKKKSSTSSGEVQEDPQELRPVPDTPGQPVPAVSLLPRKGILKKSRQRESGYYSSPEPSESGELLDASDVFVSGDPVEQKSPQASGLLLHRKGILKLNGKFSRTALEGTTPSTFGSLDQLASSHPAARPSRPSGAVSEDSILSSESFDQLDLPERLPETPLRGCVSVDNLRGLEQPPSEGLKRWWQESLGDSCFSLTDCQEVTAAYRQALGICSKLS
Phosphorylation by MLSK-1 (% of max.) [1]: 82.1 % of max.
Phosphorylation by MLSK-1 (% of max.) [2]: 66.6 % of max.
Phosphorylation by MLSK-1 (% of max.) [3]: 65.9 % of max.
Phosphorylation by MLSK-1 (% of max.) [4]: 14.1 % of max.
Phosphorylation by MLSK-1 (% of max.) [5]: 75 % of max.
Phosphorylation by MLSK-1 (% of max.) [6]: 100 % of max.
Phosphorylation by MLSK-1 (% of max.) [7]: 43.1 % of max.
Phosphorylation by MLSK-1 (% of max.) [8]: 69.3 % of max.
Phosphorylation by MLSK-1 (% of max.) [9]: 10.3 % of max.
Phosphorylation by MLSK-1 (% of max.) [10]: 0 % of max.
Phosphorylation by MLSK-1 (% of max.) [11]: 3.8 % of max.
Phosphorylation by MLSK-1 (% of max.) [12]: 82 % of max.
Phosphorylation by MLSK-1 (% of max.) [13]: 72 % of max.
Phosphorylation by MLSK-1 (% of max.) [14]: 33.7 % of max.
Phosphorylation by MLSK-1 (% of max.) [15]: 62.2 % of max.
Phosphorylation by MLSK-1 (% of max.) [16]: 66.6 % of max.
Phosphorylation by MLSK-1 (% of max.) [17]: 88.6 % of max.
Phosphorylation by MLSK-1 (% of max.) [18]: 20.9 % of max.
Phosphorylation by MLSK-1 (% of max.) [19]: 94.8 % of max.
Phosphorylation by MLSK-1 (% of max.) [20]: 17.6 % of max.
